Data on two molecules can be found in PMC4081071.

In one data set the target is T1, GLD-1 KH-QUA2 P228A (Caenorhabditis elegans, UniProt Q17339 195-336, P228A).
T1 sequence: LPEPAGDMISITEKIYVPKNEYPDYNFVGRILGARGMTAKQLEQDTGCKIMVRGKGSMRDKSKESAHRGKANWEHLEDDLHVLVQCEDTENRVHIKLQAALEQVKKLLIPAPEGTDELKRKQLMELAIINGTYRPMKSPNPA
As to the kind of experiment: ITC. Background: ITC needs no label: the signal is the heat of the interaction.

The next data set concerns the target T2, GLD-1 KH-QUA2 P228S (Caenorhabditis elegans, UniProt Q17339 195-336, P228S).
T2 sequence: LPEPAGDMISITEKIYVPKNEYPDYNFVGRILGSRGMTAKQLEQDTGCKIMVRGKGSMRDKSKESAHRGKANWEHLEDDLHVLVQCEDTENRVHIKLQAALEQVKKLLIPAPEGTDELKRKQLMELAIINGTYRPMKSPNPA
As to the kind of experiment: NMR HSQC titration.

Data set [1] has as its target T3, GLD-1 KH-QUA2 (Caenorhabditis elegans, UniProt Q17339 195-336).
T3 sequence: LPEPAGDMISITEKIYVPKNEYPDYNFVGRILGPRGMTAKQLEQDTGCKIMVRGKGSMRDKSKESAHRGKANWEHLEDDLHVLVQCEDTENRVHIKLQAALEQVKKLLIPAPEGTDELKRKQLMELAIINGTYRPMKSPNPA
Kind of data set: ITC.

In data set [2] the target is T3, GLD-1 KH-QUA2. Kind of data set: NMR HSQC titration.

In the case of CUACUCAUAU (ssRNA) [tra-2 TGE strong site], the binding signal with GLD-1 KH-QUA2 P228A is 19 fold decrease in affinity vs wild type. Further, in the data set with GLD-1 KH-QUA2 P228S, the binding result was “binds”. The Kd (commonly a measure of binding affinity in units of concentration) with GLD-1 KH-QUA2 [1] came to 61 ± 3 nM.
Regarding AUUUAAUUU (ssRNA) [tra-2 TGE weak site], in the data set with GLD-1 KH-QUA2 [2], the binding result is “binds”.
